Assay results from patent US10973762B2, “Active-targeting-type polymer derivative, composition containing said polymer derivative, and uses of said polymer derivative and said composition” (Nippon Kayaku Kabushiki Kaisha, priority 2016, dated 2021).

Legend:
[1] = biological target: T1, integrin αVβ3 (Mus musculus, UniProt O54890+P43406); experiment: Integrin binding assay (inhibition of biotinylated vitronectin binding); details: dilution series, absorbance at 450 nm
T1 construct: purchased R&D Systems, Inc
T1 sequence (P43406 31-988 limits assumed): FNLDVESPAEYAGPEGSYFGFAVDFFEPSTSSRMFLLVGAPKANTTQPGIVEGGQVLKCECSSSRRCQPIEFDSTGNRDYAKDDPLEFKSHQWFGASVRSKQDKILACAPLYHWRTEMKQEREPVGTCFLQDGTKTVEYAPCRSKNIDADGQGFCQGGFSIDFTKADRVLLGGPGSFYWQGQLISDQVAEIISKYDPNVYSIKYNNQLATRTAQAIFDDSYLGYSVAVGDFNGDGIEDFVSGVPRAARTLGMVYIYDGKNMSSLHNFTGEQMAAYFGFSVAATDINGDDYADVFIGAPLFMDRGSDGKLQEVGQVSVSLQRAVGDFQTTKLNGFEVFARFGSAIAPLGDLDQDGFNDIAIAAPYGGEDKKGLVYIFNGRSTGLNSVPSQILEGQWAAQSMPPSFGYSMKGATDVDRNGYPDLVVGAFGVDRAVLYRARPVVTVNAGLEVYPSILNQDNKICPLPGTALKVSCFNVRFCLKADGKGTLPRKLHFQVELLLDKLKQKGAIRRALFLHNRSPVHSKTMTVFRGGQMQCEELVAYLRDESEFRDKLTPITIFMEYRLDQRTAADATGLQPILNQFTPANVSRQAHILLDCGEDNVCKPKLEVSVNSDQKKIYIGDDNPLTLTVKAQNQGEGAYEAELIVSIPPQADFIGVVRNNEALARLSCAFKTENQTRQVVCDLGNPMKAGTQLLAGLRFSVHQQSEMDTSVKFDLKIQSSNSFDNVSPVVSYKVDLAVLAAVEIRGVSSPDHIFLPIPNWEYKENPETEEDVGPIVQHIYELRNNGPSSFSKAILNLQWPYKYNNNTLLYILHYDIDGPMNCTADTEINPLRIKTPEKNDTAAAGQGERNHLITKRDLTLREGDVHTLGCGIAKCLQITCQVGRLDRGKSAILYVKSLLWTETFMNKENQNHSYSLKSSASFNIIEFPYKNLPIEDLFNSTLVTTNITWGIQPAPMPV
T1 sequence (O54890 26-717 limits assumed): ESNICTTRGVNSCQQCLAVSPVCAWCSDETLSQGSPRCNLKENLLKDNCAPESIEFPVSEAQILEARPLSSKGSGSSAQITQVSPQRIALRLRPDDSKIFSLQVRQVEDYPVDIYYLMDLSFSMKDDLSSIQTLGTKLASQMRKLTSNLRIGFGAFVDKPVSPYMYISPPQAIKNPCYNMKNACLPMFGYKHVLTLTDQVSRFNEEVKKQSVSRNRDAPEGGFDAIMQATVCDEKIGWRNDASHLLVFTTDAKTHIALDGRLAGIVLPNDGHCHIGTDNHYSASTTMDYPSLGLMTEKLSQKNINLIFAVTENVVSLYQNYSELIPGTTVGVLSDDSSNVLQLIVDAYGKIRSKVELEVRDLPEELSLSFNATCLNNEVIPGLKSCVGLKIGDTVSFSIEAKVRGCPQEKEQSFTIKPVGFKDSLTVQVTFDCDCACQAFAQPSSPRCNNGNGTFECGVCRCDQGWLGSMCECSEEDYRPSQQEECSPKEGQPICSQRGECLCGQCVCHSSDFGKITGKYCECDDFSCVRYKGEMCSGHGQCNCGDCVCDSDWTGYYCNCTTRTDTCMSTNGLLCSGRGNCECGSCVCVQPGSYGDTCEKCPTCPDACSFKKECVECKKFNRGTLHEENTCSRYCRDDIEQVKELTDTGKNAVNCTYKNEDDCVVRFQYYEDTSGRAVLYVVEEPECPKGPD
Description: 100 μL each of 1 μg/mL Recombinant Mouse Integrin alpha V beta 3 Protein (R&D Systems, Inc.) produced with PBS(−) was added to a 96-well Costar high capacity binding plate, and the plate was left to stand overnight at 4° C. to thereby bind integrin αVβ3 to the bottom face of the wells. Subsequently, integrin αVβ3 in the wells was removed by suctioning, and 200 μL of a Blocking/Binding buffer (50 mM Tris HCl at pH 7.4, 100 mM NaCl, 2 mM CaCl2, 1 mM MgCl2, 1 mM MnCl2, 1% BSA) was added to each well. Blocking was performed at an interval of one hour at room temperature.
100 μL of biotinylated vitronectin (1 μg/mL) obtained by biotinylated human recombinant vitronectin (Wako Pure Chemical Industries, Ltd.) was added in advance into each well using Biotin Labeling Kit-NH2 (Dojindo Molecular Technologies, Inc.), and the plate was left to stand at room temperature for 3 hours. Subsequently, the wells were washed three times using 200 μL of Blocking/Binding buffer, and 100 μL of streptavidin-HRP (GE Healthcare) diluted 10,000 times with the Blocking/Binding buffer was added to each well. The mixture was left to stand for one hour at room temperature. The wells were washed two times using 200 μL of the Blocking/Binding buffer. […]
Within 30 minutes after the addition, the absorbance at 450 nm was measured, and the binding ratio of biotinylated vitronectin to integrin αVβ3 was calculated.

[2] = Average particle size, single nanoparticle size analyzer IG-1000; format: physicochemical
Description: The measurement of the average particle size of the compositions including block copolymers of Examples 3 to 10 and Comparative Examples 1 to 6 was carried out using a single nanoparticle size analyzer, IG-1000, manufactured by Shimadzu Corp. (measurement temperature: 25° C., light intensity at t=0: 100 to 200).
Regarding a sample for measuring the average particle size, a solution produced to have a concentration of 2 mg/mL or 5 mg/mL in terms of the composition weight and filtered through a 0.45-μm membrane filter, was used.

[3] = Test Example 4: tissue distribution in kidney (fluorescence of sections); format: in vivo, nude mice; details: i.v. 5 mg/kg in terms of fluorescent substance
Description: (§1) A suspension of cultured cancer cell human glioma U87MG was subcutaneously transplanted on the dorsal sides of nude mice using an injection needle-attached syringe. Example 7, Comparative Example 2, and Comparative Example 3 were dissolved in a 5% glucose injectable solution, and each of the solutions was intravenously administered a single time in an amount of 5 mg/kg in terms of 2-(2-aminoethoxy)-9-(diethylamino)-5H-benzo[a]phenoxazin-5-one.
(§2) After one hour and after 24 hours from the administration, the mice were exsanguinated under isoflurane anesthesia, and frozen embedded sections of extracted tumor and kidney were produced. Fluorescence derived from 2-(2-aminoethoxy)-9-(diethylamino)-5H-benzo[a]phenoxazin-5-one in the administered composition was observed.
(§3) Furthermore, based on those images, the luminance was calculated using Image-Pro Premier (Media Cybernetics, Inc.), and the values of luminance of tumor tissue sections are shown in FIG. 9, while the values of luminance of kidney tissue sections are shown in FIG. 11.

[4] = Test for drug releasability into phosphate buffer solution; format: physicochemical; details: phosphate buffer solution pH 7.4, 37° C., 6 hours, 1.0 mg/mL, absence of enzyme
Description: Example 7, Example 8, and Comparative Example 3 were respectively dissolved in a phosphate buffer solution (pH 7.4) at a concentration of 1.0 mg/mL in terms of the composition weight, and the solutions were left to stand at a constant temperature of 37° C. The amount of 7-ethyl-10-hydroxycamptothecin (EHC) released was measured over time by HPLC, and the proportion of the amount of EHC released with respect to the total amount of EHC in the compound used was determined.

[5] = system: human glioma U87MG; experiment: Test Example 4: tissue distribution in tumor (fluorescence of sections); format: in vivo, nude mice; details: one hour after i.v. administration, 5 mg/kg in terms of fluorescent substance
Description: as §1, §2, §3

Substance | inhibition of binding of vitronectin and integrin αVβ3 [1] | average particle size ([2]; 5 mg/mL) [nm] | distribution of fluorescence in kidney [3] | average particle size ([2]; 2 mg/mL) [nm] | EHC release (proportion of EHC released with respect to total EHC) [4] [%] | distribution of fluorescence in tumor [5]
4-phenyl-1-butanol-bonded and 2-(2-aminoethoxy)-9-(diethylamino)-5H-benzo[a]phenoxazin-5-one-bonded product of polyethylene glycol (10 kilodaltons)-polyglutamic acid (21.0 polymerizations) block copolymer [Comparative Example 1] | not recognized | – | – | – | – | –
7-ethyl-10-hydroxycamptothecin (EHC)-bonded and 2-(2-aminoethoxy)-9-(diethylamino)-5H-benzo[a]phenoxazin-5-one-bonded product of polyethylene glycol (12 kilodaltons)-polyglutamic acid (22.0 polymerizations) block copolymer [Comparative Example 2] | – | 23 | fluorescence was not recognized in areas other than in the blood vessels | – | – | –
7-ethyl-10-hydroxycamptothecin (EHC)-bonded and 2-(2-aminoethoxy)-9-(diethylamino)-5H-benzo[a]phenoxazin-5-one-bonded product of polyethylene glycol (2 kilodaltons)-polyglutamic acid (7.59 polymerizations) block copolymer [Comparative Example 3] | – | – | fluorescence was observed in the blood vessels and the renal tubules | 13 | 61 | penetrated into the entire tumor compared to Comparative Example 2
